From the supplement of paper PMC9732359
± gives the uncertainty stated by the source.

Test: protein stability index of a GFP-peptide fusion (yeast GPS) (PSI 1-4); higher = more stable; sorted into four equal gates, so the index is relative within each strain
Procedure, shortened: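 Sequencing reads from sorted gates were used to score each peptide. The library consisted of tiled 17-residue yeast protein peptides fused downstream of GFP on a Cherry-expressing plasmid, pooled and carried in yeast. Mid-log cultures in leucine-free medium were split into four equal gates by GFP/Cherry ratio, and each gate's plasmids were PCR-amplified and Illumina-sequenced. The protein stability index adds up, over all gates, the read frequency multiplied by the gate number.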

| Sequence | protein stability index (doa10∆) | protein stability index (ubr1∆) | protein stability index (pdr5∆) | protein stability index (san1∆) |
| --- | --- | --- | --- | --- |
| RQKKKPTSAQKSAVSHA [IRR1] | 1.34 ± 0.24 | 1.56 ± 0.15 | – | – |
| KVSDPYVPTRNTFNYDV [RPN4] | 2.25 ± 0.14 | 2.08 ± 0.085 | 2.39 ± 0.17 | 1.8 ± 0.28 |
| LFGGRHYLFNTFTFTAH [SWP82] | 2.03 ± 0.042 | 1.82 ± 0.024 | 2.1 ± 0.035 | 1.69 ± 0.061 |
| IELIDYDKLPAGQNATV [RET1] | 2.41 ± 0.074 | 2.4 ± 0.068 | 1.95 ± 0.079 | 1.67 ± 0.2 |
| AGEFGLKNKKEIYRISF [RPS9A] | 2.58 ± 0.065 | 2.77 ± 0.066 | 2.95 ± 0.089 | 3.08 ± 0.14 |
| NFNLKPTKTLTTKERKK [PRP8] | 1.98 ± 0.049 | 2.12 ± 0.041 | 2.54 ± 0.074 | 2.19 ± 0.075 |
| PPSSFGRSHTRNSTRSS [REC8] | 3.04 ± 0.14 | 2.96 ± 0.17 | 2.65 ± 0.17 | 3.14 ± 0.087 |
| QLDSDANKLSKSHSTVS [ISW2] | 3.04 ± 0.063 | 3.06 ± 0.074 | 2.85 ± 0.075 | 3 ± 0.13 |
| QCPVKSAEDQLYAITFR [QCR2] | 3.14 ± 0.12 | 3.09 ± 0.16 | 2.83 ± 0.25 | 3.13 ± 0.14 |
| VMESGAKGCEVVVSGKL [RPS3] | 3.04 ± 0.23 | – | – | 3 ± 0.24 |
| GKKWFEVSQFLIENGAS [NAS6] | 1.91 ± 0.084 | 1.49 ± 0.074 | 1.55 ± 0.061 | 1.4 ± 0.1 |
| QTATQLLERGRLRKRVT [SMC2] | 3.04 ± 0.11 | 2.42 ± 0.078 | 3.04 ± 0.083 | 2.92 ± 0.064 |
| TFENINSLFYLKWSACT [IRR1] | 1.26 ± 0.082 | 1.21 ± 0.051 | 1.35 ± 0.082 | 1.27 ± 0.17 |
| VVLFNRQPSLHRLSILS [RPO31] | 1.65 ± 0.054 | 1.63 ± 0.047 | 1.88 ± 0.053 | 1.44 ± 0.096 |
| SSLLSRLISSKMPGGFT [FAS2] | 2.51 ± 0.069 | 2.89 ± 0.064 | 2.41 ± 0.08 | 2.17 ± 0.094 |
| YDPIKRIDAFNALEHKY [SSN3] | 2.83 ± 0.058 | 2.77 ± 0.043 | 2.85 ± 0.041 | 2.73 ± 0.05 |
| EKDLEHWLQLAKGVYRP [POP1] | 2.64 ± 0.072 | 3.1 ± 0.064 | 3 ± 0.067 | 3.15 ± 0.041 |
| KHYKNIPRNSPLSDLKK [RPC82] | 2.88 ± 0.15 | 2.97 ± 0.083 | 2.97 ± 0.17 | 2.59 ± 0.19 |
| NNAHSSDLGTVVFDSNE [YMR153W/NUP53] | 2.56 ± 0.16 | 1.85 ± 0.082 | 2.46 ± 0.093 | 2.24 ± 0.1 |
| VNGFLNLGYCNDKLIVD [RPN1] | 3.32 ± 0.098 | 2.49 ± 0.079 | 2.78 ± 0.067 | 2.89 ± 0.052 |
| TQVYKLGLAKSVHHARV [RPS9A] | 1.94 ± 0.089 | 1.24 ± 0.066 | 1.48 ± 0.053 | 1.55 ± 0.14 |
| AQASEEENDLQQKLNTR [REC8] | 2.96 ± 0.26 | – | – | – |
| EDVLSSFYRVEKIKKIN [SSN2] | 1.7 ± 0.28 | 1.16 ± 0.089 | 1.13 ± 0.074 | 1.24 ± 0.28 |
| VTLFQMAILLLYNDADV [CDC53] | 2.03 ± 0.057 | 1.96 ± 0.041 | 1.79 ± 0.051 | 1.67 ± 0.099 |
| QNDTPMFKLGNFESPVL [YLR018C/POM34] | 2.08 ± 0.066 | 2.29 ± 0.034 | 2.48 ± 0.059 | 2.62 ± 0.05 |
| GIVETNRPDNKNAQYHL [RPN7] | 3.17 ± 0.11 | 3.06 ± 0.054 | 3.21 ± 0.13 | 3.4 ± 0.069 |
| ITGGIIEETSAAIKDLD [RRP43] | 3.13 ± 0.2 | – | – | – |

| Sequence | protein stability index (doa10∆) | protein stability index (ubr1∆) | protein stability index (pdr5∆) | protein stability index (san1∆) |
| --- | --- | --- | --- | --- |
| AYPAAREQFLNAQDIDH [FAS1] | 3.13 ± 0.082 | 3.21 ± 0.054 | 3.15 ± 0.11 | 2.84 ± 0.11 |
| IDYSNSQIRLYAKFKRN [RGR1] | 3.1 ± 0.093 | 2.8 ± 0.057 | 2.46 ± 0.1 | 2.45 ± 0.091 |
| LIKKAVSVRKHLERNRK [RPS13] | 3.43 ± 0.26 | 3.28 ± 0.1 | 3.32 ± 0.11 | – |
| NSAARNIQHLLYGKRFF [PRE7] | 2.13 ± 0.08 | 2.45 ± 0.076 | 2.72 ± 0.084 | 2.12 ± 0.1 |
| TLGNALRYVIMKNPDVE [RPC19] | 2.93 ± 0.091 | 2.8 ± 0.055 | 2.73 ± 0.059 | 2.46 ± 0.077 |
| RELFVMAREHAPSIIFM [RPT6] | 1.82 ± 0.078 | 1.71 ± 0.078 | 1.99 ± 0.085 | 1.4 ± 0.23 |
| SSISVMGENEKPDVTYA [RPT3] | 2.92 ± 0.2 | 3.27 ± 0.083 | 3.25 ± 0.1 | 3.12 ± 0.11 |
| KTYNKLHYCVSCAIHAR [RPS26A] | 1.21 ± 0.055 | 1.2 ± 0.12 | 1.33 ± 0.087 | 1.31 ± 0.14 |
| LNIDFGSDKQMFTQIYL [YML103C/NUP188] | 3.17 ± 0.14 | 3.25 ± 0.066 | 2.99 ± 0.15 | 2.46 ± 0.12 |
| VRIYSGLLKRGDTVRIL [SNU114] | – | 3.02 ± 0.1 | 2.92 ± 0.17 | 2.66 ± 0.17 |
| SSNIVNENDSQAIITER [YIL149C/MLP2] | 3.14 ± 0.12 | 2.86 ± 0.057 | 2.93 ± 0.086 | 2.07 ± 0.26 |
| DAFRVHICGICGLMTVI [RPB2] | 1.33 ± 0.084 | 1.43 ± 0.062 | 1.43 ± 0.095 | 1.34 ± 0.16 |
| LAGKYIPNLTAKPFQVT [FAS1] | 2.37 ± 0.06 | 2.63 ± 0.048 | 2.76 ± 0.053 | 2.29 ± 0.1 |
| EVVSEAINIMNRSNDAL [FAS2] | 3.32 ± 0.12 | 3.31 ± 0.16 | 3.44 ± 0.13 | 3.44 ± 0.049 |
| SSLRNQELLNAETLCFT [RPN3] | 2.89 ± 0.11 | 3.11 ± 0.091 | 3.02 ± 0.15 | 3.22 ± 0.065 |
| SSRFIKGGSLYGLGLIY [RPN2] | 2.07 ± 0.09 | 1.99 ± 0.06 | 2.1 ± 0.088 | 2.38 ± 0.061 |
| FYQGKTGVVYNVTKSSV [RPL21A] | 2.69 ± 0.11 | 2.65 ± 0.071 | 2.58 ± 0.079 | 2.42 ± 0.086 |
| RPLQKIMLLQLELGSCF [SIN4] | 1.41 ± 0.058 | 1.42 ± 0.061 | 1.54 ± 0.065 | 1.79 ± 0.1 |
| RLQQQQAQAQAQANNNN [GAL11] | 2.03 ± 0.093 | 2.04 ± 0.06 | 2.55 ± 0.078 | 2.74 ± 0.076 |
| KNVETLEEKILAKKTHK [SMC4] | 2.65 ± 0.075 | 2.92 ± 0.11 | 2.94 ± 0.077 | 2.79 ± 0.053 |
| EGYQNDINTIKLQLSFV [SRP72] | 3.12 ± 0.21 | 3.07 ± 0.14 | 2.73 ± 0.088 | 2.1 ± 0.26 |
| AASWYGSFNEMKRNCGQ [RMP1] | 2.92 ± 0.051 | 3.21 ± 0.045 | 3.3 ± 0.054 | 3.06 ± 0.052 |
| LCDNFNHFSLSYKDSGL [COR1] | 2.27 ± 0.066 | 2.5 ± 0.066 | 2.7 ± 0.069 | 2.73 ± 0.067 |
| KSTASTAAANTEKLSNG [YOR098C/NUP1] | 2.91 ± 0.23 | 3.31 ± 0.091 | 3.11 ± 0.16 | 3.1 ± 0.12 |
| DIEVPDVNALKFNNTQR [SNF12] | 2.97 ± 0.1 | 3.09 ± 0.051 | 3.29 ± 0.06 | 2.98 ± 0.047 |
| VLVDEIKSQYYSRISKL [YIL149C/MLP2] | 2.41 ± 0.054 | 2.29 ± 0.034 | 2.46 ± 0.045 | 2.3 ± 0.058 |
